Data reported in US20120100161A1 (DEUTSCHES KREBSFORSCHUNGSZENTRUM, published 2012).

Target: T1, Epithelial cell adhesion molecule (EpCAM, CD326) (human, UniProt P16422 24-314)
T1 construct: whole, on cells; Endogenous EpCAM on carcinoma cell lines; also called EpCAM antigen
T1 sequence (looked up): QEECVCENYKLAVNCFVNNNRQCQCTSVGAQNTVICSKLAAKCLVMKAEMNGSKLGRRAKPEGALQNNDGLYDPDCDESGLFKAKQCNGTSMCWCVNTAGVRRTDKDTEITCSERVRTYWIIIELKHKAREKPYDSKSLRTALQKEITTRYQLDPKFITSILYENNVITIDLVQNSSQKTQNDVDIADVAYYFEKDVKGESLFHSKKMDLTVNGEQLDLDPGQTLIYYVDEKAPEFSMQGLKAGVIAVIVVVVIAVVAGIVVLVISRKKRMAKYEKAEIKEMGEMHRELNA
Assay: binding to EpCAM-expressing cells; method not stated

B1: chimeric antibody huHEA125 (antibody, human IgG1, kappa)
heavy: not shown
light: DILLTQSPAILSVSPGERVSFSCRASQSIGISLHWYQQRPSDSPRLLIKYASESISGIPSRFSGSGSGTDFTLSINSVESEDIADYYCQQSNIWPTTFGAGTKLELKRTVAAPSVFIFPPSDEQLKSGTASVVCLLNNFYPREAKVQWKVDNALQSGNSQESVTEQDSKDSTYSLSSTLTLSKADYEKHKVYACEVTHQGLSSPVTKSFNRGEC
notes: Mouse HEA125 variable domains on human kappa and human IgG1 constant regions; also called unmodified huHEA125 antibody; non-conjugated huHEA125 antibody
B1 showed a Kd of 2.2 nM.
